Data from patent US20240010722A1 (published 2024).
Residue numbers refer to the chain shown, from its start.

Tests used:
[1] = target: T1, human MAdCAM (human, UniProt Q13477 19-317, limits assumed); assay: BLI (Octet), binder on AHC tips
T1 construct: also called huMAdCAM; human MAdCAM-1
T1 sequence (looked up): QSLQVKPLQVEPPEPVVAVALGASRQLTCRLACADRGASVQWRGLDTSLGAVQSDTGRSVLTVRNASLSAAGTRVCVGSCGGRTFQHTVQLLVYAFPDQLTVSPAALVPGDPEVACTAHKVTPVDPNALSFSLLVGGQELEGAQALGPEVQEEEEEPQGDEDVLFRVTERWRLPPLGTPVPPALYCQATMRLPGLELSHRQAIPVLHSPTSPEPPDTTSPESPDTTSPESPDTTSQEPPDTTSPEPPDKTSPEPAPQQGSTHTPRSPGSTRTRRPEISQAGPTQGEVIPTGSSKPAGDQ
Method in brief: (§1)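 Binding was measured on an Octet96 RED instrument using anti-human IgG Fc biosensors, which were first equilibrated in assay buffer for 20 minutes. The tips were then loaded for 240 s with test article at 10 μg/mL in assay buffer, exposed to MAdCAM-1 for 120 s of association, and returned to assay buffer for 120 s of dissociation, with MAdCAM-1 run as a seven-point serial dilution from 200 nM to 3.13 nM. Kinetic rates and the dissociation constant were derived by a global one-to-one fit in the Octet data analysis software.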

[2] = target: T2, mouse MAdCAM (mouse, UniProt Q61826 22-365, limits assumed); assay: BLI (Octet), binder on AHC tips
T2 construct: also called mouse MAdCAM-1; muMAdCAM
T2 sequence (looked up): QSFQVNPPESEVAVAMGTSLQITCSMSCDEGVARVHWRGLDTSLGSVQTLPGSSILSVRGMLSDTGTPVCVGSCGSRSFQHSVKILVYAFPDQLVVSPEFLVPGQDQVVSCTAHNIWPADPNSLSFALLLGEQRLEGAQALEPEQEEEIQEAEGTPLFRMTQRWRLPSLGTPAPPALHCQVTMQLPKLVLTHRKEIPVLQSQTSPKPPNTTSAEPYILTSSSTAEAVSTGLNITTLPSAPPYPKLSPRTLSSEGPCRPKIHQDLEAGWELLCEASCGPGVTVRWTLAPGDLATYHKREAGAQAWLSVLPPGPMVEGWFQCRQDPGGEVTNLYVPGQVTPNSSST
Method in brief: as §1

B1: PMAB19 (bispecific antibody, human IgG1, kappa)
heavy: EVQLLESGGGLVQPGGSLRLSCAASGFTFSNSDMSWVRQAPGKGLEWVSGITISGGSTYYADSVKGRFTISRDNSKNTLYLQMNSLRAEDTAVYYCARGRGGSGWLDYWGQGTLVTVSSASTKGPSVFPLAPSSKSTSGGTAALGCLVKDYFPEPVTVSWNSGALTSGVHTFPAVLQSSGLYSLSSVVTVPSSSLGTQTYICNVNHKPSNTKVDKKVEPKSCDKTHTCPPCPAPEAAGAPSVFLFPPKPKDTLMISRTPEVTCVVVDVSHEDPEVKFNWYVDGVEVHNAKTKPREEQYNSTYRVVSVLTVLHQDWLNGKEYKCKVSNKALPAPIEKTISKAKGQPREPQVYTLPPSREEMTKNQVSLTCLVKGFYPSDIAVEWESNGQPENNYKTTPPVLDSDGSFFLYSKLTVDKSRWQQGNVFSCSVMHEALHNHYTQKSLSLSPGGGGGSGGGGSGGGGSEVQLLESGGGLVQPGGSLRLSCAASGFTFSSFWMHWVRQAPGKGLEWISYISGDSGYTNYADSVKGRFTISRDNSKNTLYLQMNSLRAEDTAVYYCARDRPYYYYMDVWGKGTTVTVSSGGGGSGGGGSGGGGSGGGGSDIQMTQSPSSLSASVGDRVTITCRASQSVSRSLAWYQQKPGKAPKLLIYAASSLQSGVPSRFSGSGSGTDFTLTISSLQPEDFATYYCQQYKSYPVTFGQGTKVEIK
light: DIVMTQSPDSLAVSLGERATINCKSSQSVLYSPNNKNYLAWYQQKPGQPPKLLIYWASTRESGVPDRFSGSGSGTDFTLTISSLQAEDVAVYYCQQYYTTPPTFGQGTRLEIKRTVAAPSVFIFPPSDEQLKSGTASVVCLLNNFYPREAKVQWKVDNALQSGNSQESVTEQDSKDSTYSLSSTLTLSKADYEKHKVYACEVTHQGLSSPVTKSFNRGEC
B1 showed a Kd [1] of 31.2 nM, a koff [1] of 0.0168 s⁻¹ and a kon [1] of 540000 M⁻¹ s⁻¹. For the same binder, the Kd [2] was 112 nM, the koff [2] was 0.0177 s⁻¹ and the kon [2] was 158000 M⁻¹ s⁻¹. The response [2] was 0.149.

B2: PMAB23 (bispecific antibody, human IgG1, kappa)
heavy: B1 heavy with S494D, I511V
light: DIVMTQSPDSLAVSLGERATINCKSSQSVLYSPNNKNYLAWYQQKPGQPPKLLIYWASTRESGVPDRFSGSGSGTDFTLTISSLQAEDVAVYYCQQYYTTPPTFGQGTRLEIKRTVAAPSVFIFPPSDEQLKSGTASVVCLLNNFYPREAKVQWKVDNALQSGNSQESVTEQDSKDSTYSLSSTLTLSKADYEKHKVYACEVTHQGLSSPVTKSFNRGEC
Binder B2 has a Kd [1] of 110 nM, a koff [1] of 0.0389 s⁻¹ and a kon [1] of 355000 M⁻¹ s⁻¹. The Kd [2] was 141 nM, the koff [2] was 0.0178 s⁻¹ and the kon [2] was 126000 M⁻¹ s⁻¹. It also gave a response [2] of 0.141.

B3: PMAB26 (bispecific antibody, human IgG1, kappa)
heavy: B1 heavy with S494D, S518G
light: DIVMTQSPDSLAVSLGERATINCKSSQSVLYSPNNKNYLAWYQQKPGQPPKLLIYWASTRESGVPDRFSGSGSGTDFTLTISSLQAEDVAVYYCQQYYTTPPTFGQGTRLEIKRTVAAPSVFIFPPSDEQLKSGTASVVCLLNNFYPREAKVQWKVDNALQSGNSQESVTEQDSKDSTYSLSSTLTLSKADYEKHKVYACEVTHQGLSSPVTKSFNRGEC
Work on B3 yielded a Kd [1] of 138 nM, a koff [1] of 0.0658 s⁻¹ and a kon [1] of 476000 M⁻¹ s⁻¹. The Kd [2] was 134 nM, the koff [2] was 0.0118 s⁻¹ and the kon [2] was 87900 M⁻¹ s⁻¹. The response [2] was 0.132.

B4: PMAB27 (bispecific antibody, human IgG1, kappa)
heavy: B1 heavy with S494D, Y520S
light: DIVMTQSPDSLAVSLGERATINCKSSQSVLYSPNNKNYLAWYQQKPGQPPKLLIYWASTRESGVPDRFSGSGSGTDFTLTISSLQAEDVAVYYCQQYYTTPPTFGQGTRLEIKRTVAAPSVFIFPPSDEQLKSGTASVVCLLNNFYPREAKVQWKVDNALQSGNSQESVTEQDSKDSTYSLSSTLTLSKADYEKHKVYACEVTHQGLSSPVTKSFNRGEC
Binder B4 has a Kd [1] of 92.2 nM, a koff [1] of 0.128 s⁻¹ and a Kd [2] of 1020 nM. It also gave a koff [2] of 0.00469 s⁻¹, a kon [2] of 4580 M⁻¹ s⁻¹ and a response [2] of 0.0278.

B5: PMAB28 (bispecific antibody, human IgG1, kappa)
heavy: B1 heavy with S494D, N522Y
light: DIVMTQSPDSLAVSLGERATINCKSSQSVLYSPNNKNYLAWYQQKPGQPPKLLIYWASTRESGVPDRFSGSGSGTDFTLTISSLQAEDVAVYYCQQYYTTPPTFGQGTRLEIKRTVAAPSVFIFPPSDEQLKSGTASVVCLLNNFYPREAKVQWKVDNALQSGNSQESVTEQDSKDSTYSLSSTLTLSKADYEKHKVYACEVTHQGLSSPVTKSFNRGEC
B5 was tested, and the Kd [1] was 86.2 nM, the koff [1] was 0.0902 s⁻¹ and the kon [1] was 1.05e+06 M⁻¹ s⁻¹. For the same binder, the Kd [2] was 103 nM, the koff [2] was 0.00886 s⁻¹ and the kon [2] was 85900 M⁻¹ s⁻¹. For the same binder, the response [2] was 0.083.

B6: PMAB41 (bispecific antibody, human IgG1, kappa)
heavy: B1 heavy with S494D, K694Y
light: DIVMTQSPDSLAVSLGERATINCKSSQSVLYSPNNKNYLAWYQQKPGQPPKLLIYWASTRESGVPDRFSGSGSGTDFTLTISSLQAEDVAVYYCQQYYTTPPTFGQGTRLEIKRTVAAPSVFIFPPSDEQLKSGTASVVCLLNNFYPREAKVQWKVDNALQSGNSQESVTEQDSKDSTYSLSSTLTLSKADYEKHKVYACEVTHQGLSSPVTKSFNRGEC
B6 gave a Kd [2] of 119 nM, a koff [2] of 0.0246 s⁻¹ and a kon [2] of 208000 M⁻¹ s⁻¹. For the same binder, the response [2] was 0.189.

B7: PMAB25 (bispecific antibody, human IgG1, kappa)
heavy: B1 heavy with S494D, D517S
light: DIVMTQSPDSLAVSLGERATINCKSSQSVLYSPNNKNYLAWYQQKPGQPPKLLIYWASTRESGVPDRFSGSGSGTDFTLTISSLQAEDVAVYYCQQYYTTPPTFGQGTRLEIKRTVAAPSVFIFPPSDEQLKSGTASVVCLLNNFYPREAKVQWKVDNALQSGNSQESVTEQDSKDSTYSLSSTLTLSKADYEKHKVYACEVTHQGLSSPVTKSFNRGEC
For B7, the Kd [1] was 43.6 nM, the koff [1] was 0.0212 s⁻¹ and the kon [1] was 486000 M⁻¹ s⁻¹. For the same binder, the Kd [2] was 115 nM, the koff [2] was 0.012 s⁻¹ and the kon [2] was 105000 M⁻¹ s⁻¹. For the same binder, the response [2] was 0.133.

B8: PMAB36 (bispecific antibody, human IgG1, kappa)
heavy: B1 heavy with S494D, V631I
light: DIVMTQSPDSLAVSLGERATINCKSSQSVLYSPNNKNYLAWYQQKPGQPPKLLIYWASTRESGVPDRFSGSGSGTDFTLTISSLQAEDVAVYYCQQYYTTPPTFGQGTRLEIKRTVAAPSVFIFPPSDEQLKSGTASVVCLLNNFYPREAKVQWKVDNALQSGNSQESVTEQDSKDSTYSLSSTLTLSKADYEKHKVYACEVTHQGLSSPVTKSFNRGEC
B8 gave a Kd [1] of 109 nM, a koff [1] of 0.0325 s⁻¹ and a kon [1] of 298000 M⁻¹ s⁻¹. The Kd [2] was 206 nM, the koff [2] was 0.0251 s⁻¹ and the kon [2] was 122000 M⁻¹ s⁻¹. The response [2] was 0.169.

B9: PMAB20 (bispecific antibody, human IgG1, kappa)
heavy: B1 heavy with S494D, F495Y
light: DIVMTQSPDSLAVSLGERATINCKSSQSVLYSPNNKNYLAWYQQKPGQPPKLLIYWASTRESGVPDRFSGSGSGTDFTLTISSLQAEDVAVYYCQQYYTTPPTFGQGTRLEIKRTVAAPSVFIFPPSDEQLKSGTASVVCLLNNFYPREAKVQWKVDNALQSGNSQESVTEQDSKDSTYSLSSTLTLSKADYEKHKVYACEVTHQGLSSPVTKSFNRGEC
With B9 the Kd [1] was 90.5 nM, the koff [1] was 0.0372 s⁻¹ and the kon [1] was 411000 M⁻¹ s⁻¹. The Kd [2] was 118 nM, the koff [2] was 0.0193 s⁻¹ and the kon [2] was 163000 M⁻¹ s⁻¹. The response [2] was 0.153.

B10: PMAB24 (bispecific antibody, human IgG1, kappa)
heavy: B1 heavy with S494D, Y513A
light: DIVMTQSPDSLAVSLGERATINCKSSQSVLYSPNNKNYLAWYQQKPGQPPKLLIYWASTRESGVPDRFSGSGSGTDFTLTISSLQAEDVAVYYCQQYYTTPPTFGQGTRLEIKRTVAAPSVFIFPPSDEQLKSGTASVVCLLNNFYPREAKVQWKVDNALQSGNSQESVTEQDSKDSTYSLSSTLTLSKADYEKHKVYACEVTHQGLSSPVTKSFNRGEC
With B10 the Kd [1] was 33.2 nM, the koff [1] was 0.0134 s⁻¹ and the kon [1] was 404000 M⁻¹ s⁻¹. The Kd [2] was 52.4 nM, the koff [2] was 0.00596 s⁻¹ and the kon [2] was 114000 M⁻¹ s⁻¹. For the same binder, the response [2] was 0.0549.
